Reference: PMC11168103

Molecular target: PHOX2B-20A (UniProt Q99453 98-314)
Assay: NMR

PHOX2B-20A, sequence (Q99453 98-314): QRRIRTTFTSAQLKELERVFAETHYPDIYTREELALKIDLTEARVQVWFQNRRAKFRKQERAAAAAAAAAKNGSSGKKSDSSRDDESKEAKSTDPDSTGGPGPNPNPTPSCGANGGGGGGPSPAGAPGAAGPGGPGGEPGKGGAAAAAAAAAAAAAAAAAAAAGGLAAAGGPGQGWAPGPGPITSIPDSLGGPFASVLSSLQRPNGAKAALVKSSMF

B1: ATTA2 (dsDNA)
DNA 1: TAGTGTGATTGAATTAAAGGGCAGG
DNA 2: CCTGCCCTTTAATTCAATCACACTA
  binding result: binds
